According to publication PMC7112362:

Molecular target: MERS-CoV papain-like cysteine protease (PLpro), His-tagged (MERS-CoV)
Assay: activity-based probe labelling

Row | Substance | percent of the protease labeled after 15 min [%]
1 | K48-linked diUb "in-between" activity-based probe (from UniProt P0CG47 1-75; P0CG47 1-76) | 50
2 | K48-linked diUb "proximal" activity-based probe (from UniProt P0CG47 1-75; P0CG47 1-75) | 50
